Experimental data reported in patent publication US11078245B2, “Colon and pancreas cancer peptidomimetics” (PRECISION BIOLOGICS, INC., priority 2010, dated 2021).
“And” between values parts separate entries of the source, which are not always exact repeats. Equal entries are not always repeated. Where two headings read alike, the source gives them in different places.

Tests used:
[1] = system: Pancreatic cancer biopsies; experiment: IHC staining of patient tumor biopsies with NEO-101; assay type: binding, human
Protocol: (§1) Patients enrolled on the clinical diagnostic study agreed to provide their tumor biopsy or surgical specimen to be stained immunohistochemically with NEO-101. Tumor sections were prepared as slides, and two additional slides were prepared for negative control (human IgG1) and positive control (cytokeratin) staining to ensure quality controls for the IHC method. More specifically, tumor biopsy specimens from colorectal and pancreas cancer patients were deparaffinized at about 60° C. for 30 min prior to staining with NEO-101. Subsequently, all staining steps were carried out at about 25° C. Slides (4 μm) were blocked with Peroxo-Bloc® inhibitor (Zymed Laboratories) for about 2 min, rinsed with phosphate-buffered saline (PBS), and blocked with CAS (Zymed) for an additional about 10 minutes. Slides were stained with about 10 μg/mL of biotin-labeled NEO-101 for 1 hour, and washed three times with PBS containing 0.05% Tween®-20 non-ionic detergent. […] A 1:400 dilution of peroxidase-conjugated streptavidin (Dako North America, Inc.) was then applied to the slides for about 30 minutes and slides were washed three times. A solution of DAB (Zymed) was applied for about 2-3 minutes then rinsed with PBS. A solution of hematoxylin was then applied for about 3 minutes and rinsed with tap water until clear. The slides were dehydrated with xylene and a coverslip was added using Permount® mounting medium. Additional consecutive slides were stained with human cytokeratin AE1/AE3 (Abcam plc) as a positive control, and human IgG1 isotype as a negative control (AXXORA, LLC).
(§2) All antibodies were biotinylated prior to use and tested independently at various concentrations using human tumor tissues known to react with the antibodies. Primary antibody (NEO-101) was used at about 10 μg/mL, detected with streptavidin-horseradish peroxidase conjugate, and mounted on slides. A positive staining scale ranging from +1 to +5 was applied to the staining results, measured by light microscopy. Tissues stained with NEO-101 were considered positive (+1 to +5) for an average of 79% of the patient tumor samples (30 of 38 of both colorectal and pancreatic cancer biopsies) including the 5 pancreatic tumor samples. Tissues that were negative or considered weak staining by the immunohistochemist were considered negative. These staining results are similar to results from several other studies completed with antibodies using tissue array slides, and both frozen and paraffin-embedded surgical specimens.

[2] = system: Colorectal cancer biopsies; experiment: as above; assay type: binding, human
Protocol: as §1, §2

[3] = system: Colon cancer; experiment: Immunohistochemistry: human tissues with biotinylated NEO-101; assay type: binding
Description: (§3) Consequently, the positively stained “normal” tissues may have already undergone genotypic changes (“pre-cancerous”) resulting in the expression of the aberrantly glycosylated MUC5AC antigen that could lead to detection of carcinoma with NEO-101.

[4] = system: Normal pancreas; experiment: as above; assay type: binding
Description: as §3

[5] = system: Normal colon; experiment: as above; assay type: binding
Description: as §3

[6] = system: Normal prostate; experiment: as above; assay type: binding
Description: as §3

[7] = system: Prostate cancer; experiment: as above; assay type: binding
Description: as §3

[8] = system: Normal uterus; experiment: as above; assay type: binding
Description: as §3

[9] = system: Pancreas cancer; experiment: as above; assay type: binding
Description: as §3

[10] = system: Uterus cancer; experiment: as above; assay type: binding
Description: as §3

[11] = system: LS174T Colorectal; experiment: Flow cytometry tumor cell binding; assay type: cell-based, human
Protocol: (§4) See International Patent Application No. PCT/US2011/41502.
(§5) FACs data showing NEO-101 antibody binding to colon cancer and pancreatic cancer cell lines. Cells were washed and suspended in either 2 μg/ml NEO-101-FITC or isotype control antibody-FITC for 1 hour, washed and then subjected to FACS analysis. Experiments with all cell lines were repeated at least three times. […] DAPI was used to stain the nucleus. […] The staining pattern of these pancreatic and colorectal tumor cells was predominantly membrane-associated, consistent with the expression profile of MUC5AC.

[12] = system: SW480 Colorectal; experiment: Flow cytometry tumor cell binding; assay type: cell-based, human
Protocol: as §4, §5

[13] = system: CFPAC-1 Pancreatic; experiment: Flow cytometry tumor cell binding; assay type: cell-based, human
Protocol: as §4, §5

[14] = system: Colo-205 Colorectal; experiment: Flow cytometry tumor cell binding; assay type: cell-based, human
Protocol: as §4, §5

[15] = system: lung cancer cell line A549; experiment: Immunofluorescence with FITC labeled NEO-101; assay type: cell-based, human; settings: 2 μg/ml FITC labeled antibody

B1: NEO-101: Chimeric NEO-101 antibody, engineered in CHO-DG44 production cell clone 4B7; targets a variant of MUC5AC (protein)
light: QVVLTQSPVIMSASPGEKVTMTCSASSSISYMYWYQQKPGTSPKRWIYDTSKLASGVPARFSGSGSGTSYSLTISNMEAGDAATYYCHQRDSYPWTFGGGTNLEIK
heavy: QVQLKESGPDLVAPSQSLSITCTVSGFSLSKFGVNWVRQPPGKGLEWLGVIWGDGSTSYNSGLISRLSISKENSKSQVFLKLNSLQADDTATYYCVKPGGDYWGHGTSVTVSS
[1]
  % Positive by IHC with NEO-1O1: 100%
  Positive by IHC, subjects/total: (5/5)
[2]
  % Positive by IHC with NEO-1O1: 76%
  Positive by IHC, subjects/total: (25/33)
[3]
  Tissue staining intensity +1: (15%)
  Tissue staining intensity +2: (8%)
  Tissue staining intensity +4: (10%)
  Tissue staining intensity Negative: (56%)
  Tissue staining intensity Weak: (10%)
[3]; samples/total
  Tissue staining intensity +1: 7/48
  Tissue staining intensity +2: 4/48
  Tissue staining intensity +4: 5/48
  Tissue staining intensity Negative: 27/48
  Tissue staining intensity Weak: 5/48
  Total Positive: 21/48
[4]
  Tissue staining intensity Negative: (100%)
  Total Positive: (0%)
[4]; samples/total
  Tissue staining intensity Negative: 3/3
  Total Positive: 0/3
[5]
  Tissue staining intensity +2: (25%)
  Tissue staining intensity Negative: (75%)
  Total Positive: (25%)
[5]; samples/total
  Tissue staining intensity +2: 1/4
  Tissue staining intensity Negative: 3/4
  Total Positive: one of four and 1/4
[6]
  Tissue staining intensity Negative: (100%)
  Total Positive: (0%)
[6]; samples/total
  Tissue staining intensity Negative: 4/4
  Total Positive: 0/4
[7]
  Tissue staining intensity +1: (12%)
  Tissue staining intensity +2: (12%)
  Tissue staining intensity Negative: (75%)
  Total Positive: (25%)
[7]; samples/total
  Tissue staining intensity +1: 5/40
  Tissue staining intensity +2: 5/40
  Tissue staining intensity Negative: 30/40
  Total Positive: 10/40
[8]
  Tissue staining intensity Negative: (100%)
  Total Positive: (0%)
[8]; samples/total
  Tissue staining intensity Negative: 12/12
  Total Positive: 0/12
[9]
  Tissue staining intensity +1: (16%)
  Tissue staining intensity +2: (6%)
  Tissue staining intensity +3: (17%)
  Tissue staining intensity +4: (9%)
  Tissue staining intensity Negative: (52%)
[9]; samples/total
  Tissue staining intensity +1: 17/108
  Tissue staining intensity +2: 7/108
  Tissue staining intensity +3: 18/108
  Tissue staining intensity +4: 10/108
  Tissue staining intensity Negative: 56/108
  Total Positive: 52/108
[10]
  Tissue staining intensity +2: (5%)
  Tissue staining intensity +3: (19%)
  Tissue staining intensity Negative: (76%)
  Total Positive: (24%)
[10]; samples/total
  Tissue staining intensity +2: 2/42
  Tissue staining intensity +3: 8/42
  Tissue staining intensity Negative: 32/42
  Total Positive: 10/42
[11]; LS174, 2 μg/ml FITC antibody, FACS
  Percent positive: 89.72%
[11]; LS174T
  % Cells Stained: 89.72%
  mfi: 103
[12]
  % Cells Stained: 58.98%
  mfi: 118
[12]; 2 μg/ml FITC antibody, FACS
  Percent positive: 58.98%
[13]; CFPAC-1
  % Cells Stained: 52.56%
  mfi: 59
[13]; CFPAC, 2 μg/ml FITC antibody, FACS
  Percent positive: 52.56%
[14]
  % Cells Stained: 94.67%
  mfi: 175
[14]; 2 μg/ml FITC antibody, FACS
  Percent positive: 94.67%
[15]
  binding by immunofluorescence: does not bind
